The values that follow come from patent US20250000976A1 (NATIONAL RESEARCH COUNCIL OF CANADA, published 2025).

The target of one assay is T1, BCMA_B2x Gly6_Ala54 (human, UniProt Q02223).
T1 construct: limits given in the sample name
T1 yeast-displayed fusion (looked up): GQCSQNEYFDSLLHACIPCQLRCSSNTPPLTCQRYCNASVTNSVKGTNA
The assay can be described thus: yeast cell ELISA, sample BCMA_B2x Gly6_Ala54. How it is done: (§1) The YSD vector (pPNL6) was from The Pacific Northwest National Laboratory, USA. […] The HRP activity was assayed with substrate TMB (tetramethyl benzidine) according to the manufacture's conditions and read at OD₄₅₀.
(§2) The assays were performed as described in the Materials and Method, and OD₄₅₀ was measured. Note that OD₄₅₀ reads equal or less than 0.100 were scored as zero for clarity.
In general terms: ELISA stands for enzyme-linked immunosorbent assay.

The target of the next assay is T2, BCMA_B6x Met1_Ala43 (human, UniProt Q02223).
T2 construct: limits given in the sample name
T2 yeast-displayed fusion (looked up): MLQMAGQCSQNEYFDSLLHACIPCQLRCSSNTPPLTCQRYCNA
Description: yeast cell ELISA, sample BCMA_B6x Met1_Ala43. The protocol: as §1, §2

Another assay addresses T3, BCMA_B8x Met1_Pro23 (human, UniProt Q02223).
T3 construct: limits given in the sample name
T3 yeast-displayed fusion (looked up): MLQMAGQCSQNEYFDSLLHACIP
Description: yeast cell ELISA, sample BCMA_B8x Met1_Pro23. The protocol:
as §1, §2

The next assay concerns the target T4, BCMA_B10x Gly6_Ala43 (human, UniProt Q02223).
T4 construct: limits given in the sample name
T4 yeast-displayed fusion (looked up): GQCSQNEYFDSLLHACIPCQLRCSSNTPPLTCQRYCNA
The assay can be described thus: yeast cell ELISA, sample BCMA_B10x Gly6_Ala43. The protocol: as §1, §2

A further assay deals with T5, BCMA_B17x Ile22_Tyr40 (human, UniProt Q02223).
T5 construct: limits given in the sample name
T5 yeast-displayed fusion (looked up): IPCQLRCSSNTPPLTCQRY
The assay can be described thus: yeast cell ELISA, sample BCMA_B17x Ile22_Tyr40. How it is done: as §1, §2

In a further assay the target is T6, BCMA_B21x Arg27_Tyr40 (human, UniProt Q02223).
T6 construct: limits given in the sample name
T6 yeast-displayed fusion (looked up): RCSSNTPPLTCQRY
The assay can be described thus: yeast cell ELISA, sample BCMA_B21x Arg27_Tyr40. How it is done:
as §1, §2

Assay [1] deals with T7, BCMA_B13x Gly6 (C8S)_Pro23 (human, UniProt Q02223).
T7 construct: limits and substitution as printed in the sample name
T7 yeast-displayed fusion (looked up): GQSSQNEYFDSLLHACIP
The assay can be described thus: yeast cell ELISA, sample BCMA_B13x Gly6 (C8S)_Pro23. The protocol:
as §1, §2

The target of assay [2] is T8, BCMA_B16x Ile22_Ala43 (C41S) (human, UniProt Q02223).
T8 construct: limits and substitution as printed in the sample name
T8 yeast-displayed fusion (looked up): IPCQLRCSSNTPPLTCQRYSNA
Description: yeast cell ELISA, sample BCMA_B16x Ile22_Ala43 (C41S). The protocol:
as §1, §2

The target in assay [3] is T9, BCMA_B20x Arg27_Ala43 (C41S) (human, UniProt Q02223).
T9 construct: limits and substitution as printed in the sample name
T9 yeast-displayed fusion (looked up): RCSSNTPPLTCQRYSNA
Description: yeast cell ELISA, sample BCMA_B20x Arg27_Ala43 (C41S). How it is done: as §1, §2

For the next assay, the target named is T10, hBCMA-ECD-FC5VHH (human, UniProt Q02223 1-54, biotinylated in vivo ; biotinylated in vivo on the tag of the carrier part, which is not in the letters).
T10 construct: Made in HEK-293 cells, monomeric SEC fraction; The methods say about 500 RU captured on an SA chip; the results say immobilised on a CM5 chip; also called hBCMA-FC5; human BCMA-ECD; not shown: FC5 VHH carrier, any linker, and the His and biotinylation tags
T10 sequence: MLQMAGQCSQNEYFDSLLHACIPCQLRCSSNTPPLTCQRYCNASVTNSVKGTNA
Description: SPR, 1:1 binding model. The protocol: For surface Plasmon resonance, 15 selected VHHs were passed though size exclusion columns, Superdex 75 (GE Healthcare), respectively, in 10 mM HEPES, pH 7.4, containing 150 mM NaCl, 3 mM EDTA, monomeric sdAb fractions were collected and protein concentrations were determined by measuring absorbance at 280 nm (A280). Analysis were performed with Biacore T200 instrument (GE Healthcare). All measurements were carried out at 25° C. in 10 mM HEPES, pH 7.4, containing 150 mM NaCl, 3 mM EDTA and 0.005% surfactant P20 (GE Healthcare). Approximately 500 RUs of the recombinant monomeric BCMA-ECD (obtained after SEC purification of the BCMA-ECD-FC5VHH) were captured on SA sensor chip (GE Healthcare) at a flow rate of 5 uL/min. Various concentration of the monomeric VHHs (20-500 nM) were injected over BCMA-ECD surface, respectively using an SA surface as a reference at a flow rate of 40 μL/min. Surfaces were generated by washing with running buffer. Data were analysed with BIAevaluation 4.1 software.
The monomeric fraction of all 15 VHHs were used for SPR experiment where the human BCMA-ECD or mouse BCMA was immobilized onto the CM5 dextran chip and various VHH concentration (20-500 nM) were passed over the sensor chip.
For orientation: Surface plasmon resonance follows binding to a sensor surface in real time, without labels.

Assay [4] deals with T11, human BCMA on target cells (Raji, Ramos, Jeko-1, RPMI8226) (human, UniProt Q02223 1-184).
T11 construct: also called TNFRSF17; BCMA-positive target cells
T11 sequence: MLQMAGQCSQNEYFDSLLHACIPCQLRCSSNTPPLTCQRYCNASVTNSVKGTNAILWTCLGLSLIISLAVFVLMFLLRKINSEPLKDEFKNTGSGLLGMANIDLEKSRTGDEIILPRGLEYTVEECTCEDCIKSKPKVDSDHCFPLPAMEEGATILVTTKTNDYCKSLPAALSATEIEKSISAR
Description: flow cytometry on RPMI8226 cells (BCMA-high); VHH detected with AlexaFluor647 anti-VHH antibodies. The protocol:
Purified VHH were used to assess the target specificity of the sdBCMA Ab by flow cytometry. The highly BCMA expressing human myeloma cell line RPM18226, the BCMA-low human Burkitt's lymphoma cell line Raji, and the BCMA-negative Jurkat human T cell leukemia cell line were incubated with 5 fold dilution of biotin labelled sdBCMA VHH from 7.5-0.06 μg/mL. The binding of the BCMA-targeted VHH to cell surface BCMA was detected by flow cytometry using a mixture of two broad reactivity mouse anti-VHH antibodies conjugated with AlexaFluor647.
(In general: In flow cytometry, cells or beads pass a laser one at a time.)

The next assay addresses T12, mBCMA-ECD-FC5VHH (mouse, UniProt O88472 1-49, biotinylated in vivo ; biotinylated in vivo on the tag of the carrier part, which is not in the letters).
T12 construct: also called mouse BCMA; murine BCMA ECD; not shown: FC5 VHH carrier, any linker, and the His and biotinylation tags
Description: SPR (Biacore T200), VHH over mouse BCMA-ECD surface, 25 C.

T12 sequence (O88472 1-49 limits assumed): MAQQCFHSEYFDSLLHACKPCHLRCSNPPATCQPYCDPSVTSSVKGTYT

B1: hBCMA-VcMRo8(VF7/VF8) (VHH)
VHH: QVQLVESGGGLVQPGGSLRLSCAASGTIFSRNALAWFRQAPGKQRELVAHITIGGTTVYKDSVKGRFTISRDNAKNTVYLQMDALKPEDTAVYYCNADPEGSWNWVRRGDYWGQGTQVTVS
modifications: single biotin on the C-terminal AviTag
notes: also called V8; hBCMA-V8; not shown: C-terminal His tag and AviTag biotinylation signal from pMRO vector
As to B1, the OD450 in the assay with BCMA_B2x Gly6_Ala54 came to 2.74; with BCMA_B6x Met1_Ala43 it was 2.33; in the assay with BCMA_B10x Gly6_Ala43, 2.32. Also, the binding result (with BCMA_B8x Met1_Pro23; with BCMA_B17x Ile22_Tyr40; with BCMA_B21x Arg27_Tyr40; in assay [1]; in [2]; in [3]) was “no binding” in each case.

B2: hBCMA-A6 (VHH)
VHH: QVQLVESGGGLVQPGGSLRLSCVASGSIFDAYNMGWYRQAPGKQRELVAAISSAGTTFYRDSVKGRFTVSRNNAKNTMYLQMDRLRPEDTAVYDCNGAPWGDAPVKVEDWGQGTQVTVSS
modifications: single biotin on the C-terminal AviTag
notes: also called VHH-A6; not shown: C-terminal His tag and AviTag biotinylation signal from pMRO vector
As a reminder, the Kd is the constant that tells how readily two partners part at equilibrium. Molecule B2 returned a Kd with hBCMA-ECD-FC5VHH of 4 nM. The OD450 came to 3.08 in the assay with BCMA_B2x Gly6_Ala54, 2.8 with BCMA_B6x Met1_Ala43 and 1.66 in the assay with BCMA_B10x Gly6_Ala43. The binding result (with BCMA_B8x Met1_Pro23; in the assay with BCMA_B17x Ile22_Tyr40; in the assay with BCMA_B21x Arg27_Tyr40; in assay [1]; in assay [2]; in [3]) was “no binding” in each case.

B3: hBCMA-VcMRo3 (V3) (VHH)
VHH: EVQLEQSGGGLVQTGDSLRLTCTIPGRASNHFVMAWFRRAPGKEREFVATRVWSGGSPYYSDSVKGRFAIAIDNAKNTAYLQMNSLKPEDTAVYYCAATKDIMSRSYDYWGLGTQVTVSS
modifications: single biotin on the C-terminal AviTag
notes: also called hBCMA-V3; not shown: C-terminal His tag and AviTag biotinylation signal from pMRO vector
The term EC50 (read off the curve) denotes the midpoint of the concentration-response curve. In the case of B3, the OD450 was 2.53 with BCMA_B2x Gly6_Ala54, 2.65 in the assay with BCMA_B6x Met1_Ala43, 2.09 with BCMA_B8x Met1_Pro23 and 2.69 with BCMA_B10x Gly6_Ala43. The binding result (with BCMA_B17x Ile22_Tyr40; in the assay with BCMA_B21x Arg27_Tyr40; in assay [2]; in assay [3]) was “no binding” each time. Besides, the “EC50 (read off the curve)” value in assay [4] was ~2 nM.

B4: hBCMA-E7 (VHH)
VHH: QVQLVESGGGLVQTGDSLRLACTISGRATDHFVMAWFRRAPGKEREYVATRVWSGGSPYYLDSVKGRFAIAIDNAKNTAYLQMNNLKPEDTAVYYCAATKDIMSRSYDYWGLGTQVTVSS
modifications: single biotin on the C-terminal AviTag
notes: Llama VHH made in E. coli BL21(DE3), IMAC purified, monomeric SEC fraction used; also called VHH-E7; VHH # 1-B1; not shown: C-terminal His tag and AviTag biotinylation signal from pMRO vector
Usually koff stands for a measure of how fast the partners let go of each other. Low values mean a long-lived complex, high ones a short-lived complex. In general, kon refers to the rate constant with which the complex forms. Consider B4, for which the figures for the Kd with hBCMA-ECD-FC5VHH and in the assay with mBCMA-ECD-FC5VHH were 0.0462 nM and 67.5 nM, respectively. Also, the OD450 in the assay with BCMA_B2x Gly6_Ala54 was found to be 2.92; with BCMA_B6x Met1_Ala43 it was 2.19; with BCMA_B8x Met1_Pro23, 2.45; with BCMA_B10x Gly6_Ala43, 1.8. The binding result (with BCMA_B17x Ile22_Tyr40; in the assay with BCMA_B21x Arg27_Tyr40; in assay [2]; in assay [3]) was “no binding” in each case. This molecule displayed a koff in the assay with mBCMA-ECD-FC5VHH of 0.0514 s⁻¹. This molecule gave an on-rate (kon) with mBCMA-ECD-FC5VHH of 762000 M⁻¹ s⁻¹. The “EC50 (read off the curve)” value in assay [4] is ~0.9 nM.

B5: hBCMA-H4 (VHH)
VHH: QVQLVESGGGLVQPGGSLRLSCAASGDSFGAYAMGWYRQAPGKQRELVAAISSAGNTFYRDSVKGRFTVSRNNAKNAMYLQMDRLKPEDTAVYQCNGAPWADEPVKVWNWGLGTQVTVSS
modifications: single biotin on the C-terminal AviTag
notes: also called VHH-H4; not shown: C-terminal His tag and AviTag biotinylation signal from pMRO vector
Turning to B5, the values for the OD450 in the assay with BCMA_B2x Gly6_Ala54, with BCMA_B6x Met1_Ala43 and in the assay with BCMA_B10x Gly6_Ala43 were 2.16, 2.62 and 2.23, respectively. In addition, the binding result (in the assay with BCMA_B8x Met1_Pro23; in the assay with BCMA_B17x Ile22_Tyr40; with BCMA_B21x Arg27_Tyr40; in assay [1]; in assay [2]; in [3]) was “no binding” throughout.

B6: hBCMA-H2 (VHH)
VHH: QVKAEESGGGLVRPGDSLRLTCTISGRTSNNFVMAWFRRTPGKEREYVATRVWSGSTPYYHDSVKGRFTISIDDDKNTAYLQMNSLKPEDTAVYYCAATKDIMSRSYDYWGLGTQVTVSS
modifications: single biotin on the C-terminal AviTag
notes: also called VHH-H2; not shown: C-terminal His tag and AviTag biotinylation signal from pMRO vector
As to B6, the OD450 is 2.92 with BCMA_B2x Gly6_Ala54, 2.41 with BCMA_B6x Met1_Ala43, 2.89 with BCMA_B8x Met1_Pro23 and 2.6 in the assay with BCMA_B10x Gly6_Ala43. Moreover, the binding result (with BCMA_B17x Ile22_Tyr40; in the assay with BCMA_B21x Arg27_Tyr40; in assay [1]; in assay [2]; in [3]) was “no binding” each time.
